Results taken from the supplement of paper PMC10567573.

B1: RAB11B (parent)
chain: AVPTDEARAFAEKNNLSFIETSAL

Variants of: B1
Assay: protein stability index of a GFP-peptide fusion (GPS, HEK-293T) (PSI 1-6); higher = more stable
Settings: c terminus: a fixed tail appended
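Note: lentivirally expressed fusions sorted by FACS into six bins by GFP to DsRed ratio, PSI derived from sequencing read proportions per bin multiplied by bin number.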

Protein stability index: each site, then its substitutions
A11: V 2.3, T 2.71, K 2.19, L 2.4, C 3.16, N 2.87, D 3.88, Y 2.15, G 2.16, W 2.48, R 2.35, M 2.8, E 3.69, P 2.8, S 2.68, I 2.66, F 2.69, Q 2.85, H 2.3
E12: A 2.89
P3: S 2.57, V 3.05, Y 2.55, G 2.92, M 2.43, Q 3.16, I 2.63, R 2.1, L 2.28, W 2.91, T 3.17, K 2.44, H 2.33, N 3.27
R8: H 2.99, D 3.37, P 2.65, M 2.45, E 3.31, V 3.04, G 3.22, S 2.46, C 2.78, T 2.67, F 2.69, W 2.94, Q 2.45, A 2.77, N 3.06, L 2.33, Y 3.12, K 3.08, I 2.9
E6: H 2.61, T 2, C 2.46, V 2.08, D 2.95, M 2.19, R 1.86, G 2.58, F 1.66, Q 2.24, L 2.32, N 2.25, S 2.2, Y 1.67, P 2.93, I 2.71, W 2.04, A 2.45, K 2.04
A9: I 2.45, C 2.49, S 2.33, F 2.63, T 3.02, L 2.98, Y 2.48, P 2.44, W 1.78, Q 3.14, N 2.52, D 3.4, E 3.82, V 2.71, H 2.07, G 2.85, R 2.32, K 1.91, M 2.79
D5: E 2.82, S 2.33, C 2.82, N 1.92, H 2.61, K 1.41, T 2.13, L 2.46, I 2.15, M 2.07, Q 2.42, Y 2.08, F 2.17, G 2.31, W 1.38, P 1.89, R 2.07, A 2.31, V 1.99
A7: G 3.14, R 2.6, C 2.47, Q 3.46, D 4.09, V 2.7, S 2.79, F 1.98, Y 2.94, H 2.23, W 2.58, L 2.16, I 2.39, T 3.17, E 2.92, N 3.1, P 2.86, M 2.27, K 2.5
F10: C 3.1, V 3.41, I 3.33, G 3.12, W 2.34, K 2.89, D 4.06, P 2.73, A 3.38, T 3.78, L 3.19, S 3.28, N 3.25, R 2.74, Q 3.45, E 4.11, Y 3.2, M 2.9, H 3.74
T4: I 2.77, A 2.45, L 2.33, R 1.77, P 2.5, F 2, E 3.23, G 3.17, M 1.98, Y 2.37, Q 3.05, K 2, H 2.5, D 3.63, V 2.78, N 2.65, S 2.6, C 2.78, W 2.21
